Experimental data reported in US20240238419A1.

Molecular target: TRAF6 (human) (UniProt Q9Y4K3)
Assay: cell-based or functional assay

Chain of UniProt Q9Y4K3 (Q9Y4K3 whole entry): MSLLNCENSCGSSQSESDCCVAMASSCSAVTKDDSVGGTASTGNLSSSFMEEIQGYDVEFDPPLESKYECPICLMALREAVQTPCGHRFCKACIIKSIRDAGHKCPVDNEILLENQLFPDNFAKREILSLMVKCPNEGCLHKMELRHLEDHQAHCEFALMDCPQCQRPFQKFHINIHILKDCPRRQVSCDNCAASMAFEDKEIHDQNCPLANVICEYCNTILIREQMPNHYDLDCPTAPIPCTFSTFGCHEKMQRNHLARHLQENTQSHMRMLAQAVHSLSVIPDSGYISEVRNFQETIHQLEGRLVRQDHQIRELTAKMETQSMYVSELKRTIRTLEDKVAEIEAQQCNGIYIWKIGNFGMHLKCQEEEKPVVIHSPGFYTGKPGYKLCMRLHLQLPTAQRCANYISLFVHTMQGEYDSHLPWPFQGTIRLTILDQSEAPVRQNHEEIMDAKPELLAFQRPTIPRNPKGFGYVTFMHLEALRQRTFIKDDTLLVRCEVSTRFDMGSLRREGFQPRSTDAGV

activity of MALT1 detected by biotinylated MALT1 activity-based probe (bio-MALT1-ABP) pulldown, ratio of active to total MALT1, resting Jurkat T cells | Substance
50 fold | human MALT1A E316A/E806A (from UniProt Q9UDY8 1-824) (enzyme)
5 fold | human MALT1B E795A (from UniProt Q9UDY8 2-824) (enzyme)
